The MegaScale stability set (Tsuboyama et al. 2023)

B1: EEHEE_rd4_0363 (parent)
chain: VTVDIKGMEYHFDNPEEAKKFAERMAKELGGELKVENGTLKVE

Variants of: B1
Assay: folding stability dG (cDNA display proteolysis); higher = more stable
Settings: PBS, room temperature

Folding stability dG [kcal/mol] of substitutions, site by site:
D13: S 2 | Q 1.73 | C 2.42 | E 1.9 | L 1.68 | V 1.64 | Y 1.22
K19: F 2.67 | I 2.38 | N 1.38 | S 1.35 | A 1.65 | M 2.67 | Y 2.87 | L 2.74
L29: P 0.59 | E 0.835 | G 0.895 | V 1.14 | K 0.78 | M 1.69
I5: G 0.128 | Q 0.05 | L 1.23 | H 0.78 | W 1.49
G30: D 1.52 | E 1.41 | H 1.74 | K 1.66 | Q 1.57 | I 1 | W 1.17
G31: L 2.57 | H 1.27 | Q 1.32 | E 1.23 | D 0.935 | N 0.953
F21: L -0.142 | H -0.264 | V -0.636
A18: G 1.46 | Q -0.376 | C 1.03 | H -0.269 | W 0.824 | L 0.471 | R -0.072
V35: S 1.61 | E 1.96 | A 1.53 | Y 2.48 | W 3.09 | D 1.59 | L 1.93
V42: L 1.74 | N 0.799 | G 0.841 | R 0.352 | D 0.806 | H 0.832 | S 0.916 | M 0.942 | K 0.582
M8: A 1.54 | L 1.93 | F 2.11 | D 1.24 | W 1.78 | Y 2.06 | C 2.23 | S 1.55
E23: R 1.16 | A 1.48 | H 1.11 | C 2.35 | D 1.58
K20: P -0.999 | M 1.88 | T 1.67 | Y 1.57
P15: V 2.17 | A 2.19 | I 2.58 | T 1.52 | R 1.45 | E 2.12 | D 1.58 | F 3.22 | H 2.05 | L 2.6 | Y 3.25
E36: W 1.52 | T 1.78 | V 2.54 | F 1.88 | N 1.59 | L 2.02 | Y 1.86 | A 1.74 | S 1.73 | C 2.26 | Q 1.89
L40: Q 0.884 | N 0.85 | D 0.757 | M 1.67 | F 1.94 | V 1.35 | C 1.47 | E 0.788
V1: Y 2.55 | Q 1.33 | A 1.48 | K 1.2 | T 2.01 | M 2
D4: G 1.39 | L 3.5 | W 3.59 | P 0.415 | F 3.35 | E 2.56 | Y 3.35 | A 2.45 | R 2.75 | Q 2.75 | I 3.73 | K 2.77 | H 2.91
K34: E 1.02 | A 1.33 | C 1.95 | N 1.41 | I 2.28 | F 2 | D 1.01 | W 1.82
H11: Y 2.36 | F 2.13 | G 0.524 | K 1.73 | A 1.16 | P 0.291 | M 1.54 | I 1.77 | C 2.21
E32: Y 2.96 | W 2.97 | I 2.89 | A 2.15 | S 2.48 | T 2.81 | L 2.32 | Q 2.41
V3: D -0.088 | I 1.18 | C 1.34 | Y 0.332 | W 0.119 | G 0.059 | A 0.392 | F 0.603 | E -0.171 | K -0.032 | M 0.639
R24: W 2.34 | F 2.28 | A 2.11 | P -0.281 | Y 2.34 | G 1.29 | M 2.11 | D 1.68 | Q 2.04 | S 1.72
K27: V 1.82 | W 2.28 | P 0.089 | Y 2.27 | M 2.19 | L 2.35
L33: P 0.732 | Q 0.872 | F 1.47 | V 2.81 | N 0.799 | G 0.82 | R 0.462 | D 0.762 | E 0.789
E16: I 1.71 | Y 1.79 | H 1.63 | A 1.78 | S 1.58 | V 1.74 | G 1.24 | P -0.084 | D 2.02 | K 1.33 | L 1.65
A22: F 1.23 | I 1.5 | E 0.571 | D -0.23
E43: R 2.04 | M 2.49 | D 1.91 | G 1.91 | Q 2.07 | I 3.07 | C 2.81
M25: W 2.1 | N 0.581 | Y 1.34 | L 1.45 | R 1.13 | F 1.08 | D 0.142 | C 2.19 | I 1.57 | V 1.44
K41: W 1.65 | Y 1.92 | R 2.17 | D 0.86 | F 2 | C 1.64 | H 1.61 | E 0.957 | N 0.986
A26: L 1.64 | D 0.592 | Y 0.983 | H 0.962 | R 1.24 | C 2.06 | I 1.6 | S 1.3
G38: I 0.967 | M 1.1 | Y 0.501 | P 0.815 | W 0.438 | S 1.19 | K 0.662 | Q 1.21 | R 0.518 | T 1.17 | C 1.98
G7: M 0.304 | E 0.306 | L 0.238 | W 0.811 | N 0.745 | A 0.278 | Y 0.918 | Q 0.441 | V 0.407 | S 0.507 | I 0.499
T39: M 2.24 | H 1.93 | A 1.6 | P 0.866 | F 1.88 | E 1.2 | Q 1.91 | G 1.4 | Y 1.95
E28: Q 1.75 | S 1.4 | H 1.73 | D 1.34 | I 2.18 | R 1.81 | A 1.81 | Y 2.07 | M 2.03 | C 2.97 | K 1.92 | L 2.34 | T 1.47
K6: L 2.96 | C 3.13 | W 2.62 | P 0.366 | I 1.81 | M 3.32
F12: H -0.13 | N -0.908 | Q -0.27 | P -0.958 | I -0.023 | A -0.113 | K -0.237
T2: F 1.65 | K 1.95 | V 2.21
E17: C 2.09 | P -0.343 | N 1.11 | F 0.922 | Q 1.5 | S 1.38 | L 1.31 | G 0.569
N37: H 1.52 | M 1.3 | S 1.38 | L 1.52 | W 0.999
N14: H 1.3 | Q 0.996 | E 1.18 | T 2.07 | M 0.77 | S 2.11 | K 1.08
Y10: H 0.908 | K 0.191 | F 1.99 | T 0.289 | W 1.56 | I 1.05
E9: F 2.66 | K 3.05 | I 3.25 | L 3.44 | D 0.904 | W 2.25 | T 2.55
